# Patent US20240018526, “DEOXYRIBONUCLEIC ACID-BASED BIOSENSOR AND ASSOCIATED METHODS” (FACible BioDiagnostics LLC, published 2024)
# B1: N6-D2-biotin aptamer (ssDNA)
# DNA: CACGGTTCGAGCTGGTACTAAACTTCGCTAAACAACACGCAGCATTTCATCGGGTCCAAAAGGGGCTGCTCGGGATTGCGGATATGGACCCGTCAGCTTA
# modifications: 5'-biotin (5BiosG), as SEQ ID NO 96
# Target: SARS-CoV-2 spike glycoprotein S1 (SARS-CoV-2, UniProt P0DTC2 P0DTC2:14-685)
binder,measurement,value
B1,binding result,binds
